Starred links: 1 amine or outer side, 2 acyl side, 3 side chain; linkers in the order of their positions; H or OH if unused. Non-standard residues stand in square brackets, D forms with d. Groups on a side chain read outwards from the residue. No end group written: not given here. *: point of attachment. C20 diacid = O=C(O)CCCCCCCCCCCCCCCCCCC(=O)*; γGlu = O=C(O)[C@H](CCC(=O)[*:2])N[*:1]; αMeF = C[C@](N)(Cc1ccccc1)C(=O)O; 4Pal = N[C@@H](Cc1ccncc1)C(=O)O; αMeL = CC(C)C[C@](C)(N)C(=O)O; AEEA = NCCOCCOCC(=O)O; Aib = CC(C)(N)C(=O)O
T1: human glucose-dependent insulinotropic peptide receptor (human, UniProt P48546 22-466)
T1 sequence (looked up): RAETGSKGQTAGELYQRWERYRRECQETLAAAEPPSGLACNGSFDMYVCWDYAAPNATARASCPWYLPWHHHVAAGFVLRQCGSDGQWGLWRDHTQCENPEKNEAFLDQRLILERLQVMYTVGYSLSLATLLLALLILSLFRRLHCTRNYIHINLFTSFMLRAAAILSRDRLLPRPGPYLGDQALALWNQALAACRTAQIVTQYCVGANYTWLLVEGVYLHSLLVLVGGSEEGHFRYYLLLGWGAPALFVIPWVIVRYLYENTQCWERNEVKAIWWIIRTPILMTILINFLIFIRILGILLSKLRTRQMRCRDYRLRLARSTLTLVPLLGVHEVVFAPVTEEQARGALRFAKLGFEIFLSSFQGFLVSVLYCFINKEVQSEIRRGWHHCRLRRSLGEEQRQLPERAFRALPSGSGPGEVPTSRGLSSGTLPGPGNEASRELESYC

B1: Example 53 (peptide)
peptide: Y[Aib]EGTFISDYSI[αMeL]LDKK([AEEA-AEEA-γGlu-C20 diacid])HQ[Aib]DFVEYLLAGGPSSGAPPPS-NH2
modifications: N-terminus assumed
SMILES: CC[C@H](C)[C@H](NC(=O)[C@H](Cc1ccccc1)NC(=O)[C@@H](NC(=O)CNC(=O)[C@H](CCC(=O)O)NC(=O)C(C)(C)NC(=O)[C@@H](N)Cc1ccc(O)cc1)[C@@H](C)O)C(=O)N[C@@H](CO)C(=O)N[C@@H](CC(=O)O)C(=O)N[C@@H](Cc1ccc(O)cc1)C(=O)N[C@@H](CO)C(=O)N[C@H](C(=O)N[C@@](C)(CC(C)C)C(=O)N[C@@H](CC(C)C)C(=O)N[C@@H](CC(=O)O)C(=O)N[C@@H](CCCCN)C(=O)N[C@@H](CCCCNC(=O)COCCOCCNC(=O)COCCOCCNC(=O)CC[C@H](NC(=O)CCCCCCCCCCCCCCCCCCC(=O)O)C(=O)O)C(=O)N[C@@H](Cc1c[nH]cn1)C(=O)N[C@@H](CCC(N)=O)C(=O)NC(C)(C)C(=O)N[C@@H](CC(=O)O)C(=O)N[C@@H](Cc1ccccc1)C(=O)N[C@H](C(=O)N[C@@H](CCC(=O)O)C(=O)N[C@@H](Cc1ccc(O)cc1)C(=O)N[C@@H](CC(C)C)C(=O)N[C@@H](CC(C)C)C(=O)N[C@@H](C)C(=O)NCC(=O)NCC(=O)N1CCC[C@H]1C(=O)N[C@@H](CO)C(=O)N[C@@H](CO)C(=O)NCC(=O)N[C@@H](C)C(=O)N1CCC[C@H]1C(=O)N1CCC[C@H]1C(=O)N1CCC[C@H]1C(=O)N[C@@H](CO)C(N)=O)C(C)C)[C@@H](C)CC
B2: Example 52 (peptide)
peptide: Y[Aib]EGTFISDYSI[αMeL]LDKK([AEEA-AEEA-γGlu-C20 diacid])HQ[Aib]EFVE[4Pal]LLAGGPSSGAPPPS-NH2
modifications: N-terminus assumed
SMILES: CC[C@H](C)[C@H](NC(=O)[C@H](Cc1ccccc1)NC(=O)[C@@H](NC(=O)CNC(=O)[C@H](CCC(=O)O)NC(=O)C(C)(C)NC(=O)[C@@H](N)Cc1ccc(O)cc1)[C@@H](C)O)C(=O)N[C@@H](CO)C(=O)N[C@@H](CC(=O)O)C(=O)N[C@@H](Cc1ccc(O)cc1)C(=O)N[C@@H](CO)C(=O)N[C@H](C(=O)N[C@@](C)(CC(C)C)C(=O)N[C@@H](CC(C)C)C(=O)N[C@@H](CC(=O)O)C(=O)N[C@@H](CCCCN)C(=O)N[C@@H](CCCCNC(=O)COCCOCCNC(=O)COCCOCCNC(=O)CC[C@H](NC(=O)CCCCCCCCCCCCCCCCCCC(=O)O)C(=O)O)C(=O)N[C@@H](Cc1c[nH]cn1)C(=O)N[C@@H](CCC(N)=O)C(=O)NC(C)(C)C(=O)N[C@@H](CCC(=O)O)C(=O)N[C@@H](Cc1ccccc1)C(=O)N[C@H](C(=O)N[C@@H](CCC(=O)O)C(=O)N[C@@H](Cc1ccncc1)C(=O)N[C@@H](CC(C)C)C(=O)N[C@@H](CC(C)C)C(=O)N[C@@H](C)C(=O)NCC(=O)NCC(=O)N1CCC[C@H]1C(=O)N[C@@H](CO)C(=O)N[C@@H](CO)C(=O)NCC(=O)N[C@@H](C)C(=O)N1CCC[C@H]1C(=O)N1CCC[C@H]1C(=O)N1CCC[C@H]1C(=O)N[C@@H](CO)C(N)=O)C(C)C)[C@@H](C)CC
B3: Example 54 (peptide)
peptide: Y[Aib]EGTFISDYSI[αMeL]LDKK([AEEA-AEEA-γGlu-C20 diacid])HQ[Aib]DFVEWLLAGGPSSGAPPPS-NH2
modifications: N-terminus assumed
SMILES: CC[C@H](C)[C@H](NC(=O)[C@H](Cc1ccccc1)NC(=O)[C@@H](NC(=O)CNC(=O)[C@H](CCC(=O)O)NC(=O)C(C)(C)NC(=O)[C@@H](N)Cc1ccc(O)cc1)[C@@H](C)O)C(=O)N[C@@H](CO)C(=O)N[C@@H](CC(=O)O)C(=O)N[C@@H](Cc1ccc(O)cc1)C(=O)N[C@@H](CO)C(=O)N[C@H](C(=O)N[C@@](C)(CC(C)C)C(=O)N[C@@H](CC(C)C)C(=O)N[C@@H](CC(=O)O)C(=O)N[C@@H](CCCCN)C(=O)N[C@@H](CCCCNC(=O)COCCOCCNC(=O)COCCOCCNC(=O)CC[C@H](NC(=O)CCCCCCCCCCCCCCCCCCC(=O)O)C(=O)O)C(=O)N[C@@H](Cc1c[nH]cn1)C(=O)N[C@@H](CCC(N)=O)C(=O)NC(C)(C)C(=O)N[C@@H](CC(=O)O)C(=O)N[C@@H](Cc1ccccc1)C(=O)N[C@H](C(=O)N[C@@H](CCC(=O)O)C(=O)N[C@@H](Cc1c[nH]c2ccccc12)C(=O)N[C@@H](CC(C)C)C(=O)N[C@@H](CC(C)C)C(=O)N[C@@H](C)C(=O)NCC(=O)NCC(=O)N1CCC[C@H]1C(=O)N[C@@H](CO)C(=O)N[C@@H](CO)C(=O)NCC(=O)N[C@@H](C)C(=O)N1CCC[C@H]1C(=O)N1CCC[C@H]1C(=O)N1CCC[C@H]1C(=O)N[C@@H](CO)C(N)=O)C(C)C)[C@@H](C)CC
B4: Example 57 (peptide)
peptide: Y[Aib]EGTFISDYSI[αMeL]LDKK([AEEA-AEEA-γGlu-C20 diacid])HQ[Aib]EFVE[4Pal]LLAQGPSSGAPPPS-NH2
modifications: N-terminus assumed
SMILES: CC[C@H](C)[C@H](NC(=O)[C@H](Cc1ccccc1)NC(=O)[C@@H](NC(=O)CNC(=O)[C@H](CCC(=O)O)NC(=O)C(C)(C)NC(=O)[C@@H](N)Cc1ccc(O)cc1)[C@@H](C)O)C(=O)N[C@@H](CO)C(=O)N[C@@H](CC(=O)O)C(=O)N[C@@H](Cc1ccc(O)cc1)C(=O)N[C@@H](CO)C(=O)N[C@H](C(=O)N[C@@](C)(CC(C)C)C(=O)N[C@@H](CC(C)C)C(=O)N[C@@H](CC(=O)O)C(=O)N[C@@H](CCCCN)C(=O)N[C@@H](CCCCNC(=O)COCCOCCNC(=O)COCCOCCNC(=O)CC[C@H](NC(=O)CCCCCCCCCCCCCCCCCCC(=O)O)C(=O)O)C(=O)N[C@@H](Cc1c[nH]cn1)C(=O)N[C@@H](CCC(N)=O)C(=O)NC(C)(C)C(=O)N[C@@H](CCC(=O)O)C(=O)N[C@@H](Cc1ccccc1)C(=O)N[C@H](C(=O)N[C@@H](CCC(=O)O)C(=O)N[C@@H](Cc1ccncc1)C(=O)N[C@@H](CC(C)C)C(=O)N[C@@H](CC(C)C)C(=O)N[C@@H](C)C(=O)N[C@@H](CCC(N)=O)C(=O)NCC(=O)N1CCC[C@H]1C(=O)N[C@@H](CO)C(=O)N[C@@H](CO)C(=O)NCC(=O)N[C@@H](C)C(=O)N1CCC[C@H]1C(=O)N1CCC[C@H]1C(=O)N1CCC[C@H]1C(=O)N[C@@H](CO)C(N)=O)C(C)C)[C@@H](C)CC
B5: Example 56 (peptide)
peptide: Y[Aib]EGTFISDYSI[αMeL]LDKK([AEEA-AEEA-γGlu-C20 diacid])HQ[Aib]D[αMeF]VE[4Pal]LLAGGPSSGAPPPS-NH2
modifications: N-terminus assumed
SMILES: CC[C@H](C)[C@H](NC(=O)[C@H](Cc1ccccc1)NC(=O)[C@@H](NC(=O)CNC(=O)[C@H](CCC(=O)O)NC(=O)C(C)(C)NC(=O)[C@@H](N)Cc1ccc(O)cc1)[C@@H](C)O)C(=O)N[C@@H](CO)C(=O)N[C@@H](CC(=O)O)C(=O)N[C@@H](Cc1ccc(O)cc1)C(=O)N[C@@H](CO)C(=O)N[C@H](C(=O)N[C@@](C)(CC(C)C)C(=O)N[C@@H](CC(C)C)C(=O)N[C@@H](CC(=O)O)C(=O)N[C@@H](CCCCN)C(=O)N[C@@H](CCCCNC(=O)COCCOCCNC(=O)COCCOCCNC(=O)CC[C@H](NC(=O)CCCCCCCCCCCCCCCCCCC(=O)O)C(=O)O)C(=O)N[C@@H](Cc1c[nH]cn1)C(=O)N[C@@H](CCC(N)=O)C(=O)NC(C)(C)C(=O)N[C@@H](CC(=O)O)C(=O)N[C@@](C)(Cc1ccccc1)C(=O)N[C@H](C(=O)N[C@@H](CCC(=O)O)C(=O)N[C@@H](Cc1ccncc1)C(=O)N[C@@H](CC(C)C)C(=O)N[C@@H](CC(C)C)C(=O)N[C@@H](C)C(=O)NCC(=O)NCC(=O)N1CCC[C@H]1C(=O)N[C@@H](CO)C(=O)N[C@@H](CO)C(=O)NCC(=O)N[C@@H](C)C(=O)N1CCC[C@H]1C(=O)N1CCC[C@H]1C(=O)N1CCC[C@H]1C(=O)N[C@@H](CO)C(N)=O)C(C)C)[C@@H](C)CC
B6: Example 55 (peptide)
peptide: YXEGTXISDYSIXLDKKHQXDFVEXLLAGGPSSGAPPPS
modifications: Aib2; Iva6; αMeL13; K17((2-[2-(2-Amino-ethoxy)-ethoxy]-acetyl)2-(γ-Glu)-CO-(CH2)18-CO2H); Aib20; 4-Pal25; C-terminal amide

Experiments:
Assay in all cases: cell-based or functional assay
human glucagon receptor = human glucagon receptor (human, UniProt P47871 26-477)
human GLP-1 receptor = human GLP-1 receptor (human, UniProt P43220 24-463)
[1] = molecular target: T1, human glucose-dependent insulinotropic …

human glucagon receptor, sequence (P47871 26-477): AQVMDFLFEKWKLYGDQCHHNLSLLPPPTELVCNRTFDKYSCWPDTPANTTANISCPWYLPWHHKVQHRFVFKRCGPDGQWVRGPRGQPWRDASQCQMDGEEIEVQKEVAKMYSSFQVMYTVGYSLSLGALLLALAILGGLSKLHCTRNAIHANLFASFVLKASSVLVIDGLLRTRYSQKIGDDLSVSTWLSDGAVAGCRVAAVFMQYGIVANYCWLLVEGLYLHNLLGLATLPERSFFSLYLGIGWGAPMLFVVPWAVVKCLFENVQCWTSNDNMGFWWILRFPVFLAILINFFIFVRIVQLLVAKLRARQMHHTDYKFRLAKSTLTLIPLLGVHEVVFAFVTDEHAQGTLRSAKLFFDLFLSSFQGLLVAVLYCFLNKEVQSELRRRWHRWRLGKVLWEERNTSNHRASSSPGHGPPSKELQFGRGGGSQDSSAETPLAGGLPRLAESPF

| Binder | hGcgR cAMP Rel EC50 (human glucagon receptor) [nM] | hGLP1R cAMP Rel EC50 (human GLP-1 receptor) [nM] | hGIPR cAMP Rel EC50 [1] [nM] |
| --- | --- | --- | --- |
| B1 | 344 | > 5000 | 0.0194 |
| B2 | 337 | > 5000 | 0.0194 |
| B3 | > 5000 | > 5000 | 0.054 |
| B4 | 886 | > 5000 | 0.0177 |
| B5 | > 5000 | > 5000 | 0.0169 |
| B6 | > 5000 | > 5000 | 0.017 |

From patent publication US20210032299A1 (Eli Lilly, published 2021)
